Assay results reported in patent US20250270341A1 (Alector, published 2025).

T1: Full length mouse CD98hc on CHO cells (mouse, UniProt P10852 1-526)
T1 construct: CHO cells stably overexpressing it; also called CHO-mouse CD98hc; CHO-mCD98hc
T1 sequence: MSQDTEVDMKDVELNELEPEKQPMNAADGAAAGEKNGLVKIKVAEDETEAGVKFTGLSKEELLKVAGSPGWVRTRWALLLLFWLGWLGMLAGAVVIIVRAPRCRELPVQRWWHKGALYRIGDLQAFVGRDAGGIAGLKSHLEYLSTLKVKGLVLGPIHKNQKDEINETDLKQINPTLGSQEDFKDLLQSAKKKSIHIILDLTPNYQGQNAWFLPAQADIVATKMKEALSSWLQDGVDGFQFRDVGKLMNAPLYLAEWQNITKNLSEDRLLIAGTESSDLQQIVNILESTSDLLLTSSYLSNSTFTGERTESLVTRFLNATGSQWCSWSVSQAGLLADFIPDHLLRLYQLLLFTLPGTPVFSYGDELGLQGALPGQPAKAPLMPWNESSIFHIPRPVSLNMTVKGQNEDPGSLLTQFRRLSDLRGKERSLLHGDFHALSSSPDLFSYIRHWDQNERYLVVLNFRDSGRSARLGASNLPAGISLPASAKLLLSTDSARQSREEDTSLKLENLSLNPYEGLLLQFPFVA

T2: Full length human CD98hc on CHO cells (human)
T2 construct: CHO cells stably overexpressing it; also called CHO-human CD98hc; CHO-huCD98hc
T2 chain: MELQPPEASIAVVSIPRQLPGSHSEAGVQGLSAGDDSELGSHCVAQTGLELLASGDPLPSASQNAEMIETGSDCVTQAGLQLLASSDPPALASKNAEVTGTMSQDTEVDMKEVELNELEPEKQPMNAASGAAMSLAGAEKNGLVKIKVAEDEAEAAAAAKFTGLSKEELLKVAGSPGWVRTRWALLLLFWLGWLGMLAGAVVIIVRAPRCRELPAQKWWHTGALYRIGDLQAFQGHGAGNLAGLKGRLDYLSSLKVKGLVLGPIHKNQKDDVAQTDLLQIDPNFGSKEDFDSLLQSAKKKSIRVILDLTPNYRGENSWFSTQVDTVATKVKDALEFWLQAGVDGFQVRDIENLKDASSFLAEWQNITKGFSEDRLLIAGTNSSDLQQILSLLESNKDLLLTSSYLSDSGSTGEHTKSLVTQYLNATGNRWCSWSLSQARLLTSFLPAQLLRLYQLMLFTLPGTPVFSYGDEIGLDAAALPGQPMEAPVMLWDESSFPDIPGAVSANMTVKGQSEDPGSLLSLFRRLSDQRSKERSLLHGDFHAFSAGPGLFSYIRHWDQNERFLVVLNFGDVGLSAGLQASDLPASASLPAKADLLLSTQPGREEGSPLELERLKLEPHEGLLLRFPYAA

T3: human CD98hc endogenously expressed on HCMEC/D3 cells (human)
T3 construct: human brain endothelial cell line
T3 chain: T2 chain

B1: CD98HC.03.010 (antibody, V domains shown)
VH: EVQLQQSGTELVKPGASVKLSCTASGLDIKDTYLHWVKQRPEQGLEWIGKIDPANGNTKYNPKFQGKATITADTSSNTAYLQLSSLTSEDTAVHYCTTPYYSGSSYGDYWGQGTTLTVSS
VL: QIVLTQSPAIMSASPGEKVTLTCSASSSVSSSYLYWYQQKPGSSPKLWIYSTSNLASGVPARFSGSGSGTSYSLTISSMEAEDAASYFCHQWSRYPLTFGAGTKLELK
notes: hybridoma IgG
B2: CD98HC.04.063 (antibody, V domains shown)
VH: EVKLEESGGGLVQPGGSMILSCVASGFTFSNSWMNWVRQSPEKGLEWVAEIRLRSNNYATHYAESVKGRFTISRDDSKSTVYLQMNNLRAEDTGIYYCSRGDPGAYWGQGTLVTVSA
VL: DIQMTQSSSYLSVSLGNRVTITCKASDHIKNWLAWFQQKPGNAPRLLISGATILETGVPSRFSGSGSGKDYTLSITSLQTEDVATYYCQQYWSTPYTFGGGTKLEIK
notes: hybridoma IgG
B3: CD98HC.04.046 (antibody, V domains shown)
VH: QIQLVQSGPVLKKPGETVKISCKASGYTFTNFGMNWVKQAPGKGLKWMGWIDTYTREPTYVDDFKGRFAFSLETSVTTAYLQINDLKNEDSATYFCARGESHWYFDVWGAGTTVTVSS
VL: QIVLTQSPAIMSASLGERVTMTCIVSSSVSSSYLYWYQQKPGSSPKLWIYSTSILASGVPGRFSGSGSGTSYSLTISSMEAEDAATYYCHQYHRSPPTFGGGTKLEIK
notes: hybridoma IgG
B4: CD98HC.03.004 (antibody, V domains shown)
VH: DVQLQESGPGLVKPSQSLSLTCTVTGYSITNNYAWNWIRRFPGNKLEWMAYISYSGYTSYNPSLKSRISITRDTSKNQFFLQLNSVTTEDTATYYCTGYFYYYGGGSFDYWGQGTTLTVSS
VL: QAVVTQESALTTSPGETVTLTCRSSTGAVTTSNFANWVQEKPDHLFTGLIRGSNNRAPGVPARFSGSLIGDKAALTITGARTEDEAIYFCALWYSDHWVFGGGTKLTVL
notes: hybridoma IgG
B5: CD98HC.04.062 (antibody, V domains shown)
VH: EVQLVESGGDLVKPGGSLKLSCTASRFAFSTYDMSWVRQTPEKRLEWVAYISSGGGSTYFPDTVKGRFTISRDNAKNTLYLQMSSLKSEDTAMYYCARQDGHYPWFPYWGQGTLVTVSA
VL: DIVMSQSPSSLAVSVGEKVTMSCKSSQSLLYSGNQKTYLAWYQQKPGQSPKPLIYWASTRESGIPDRFTGSGSGTDFTLTISSVKAEDLAVYYCQQYYSYPPTFGAGTKLELK
notes: hybridoma IgG
B6: CD98HC.04.058 (antibody, V domains shown)
VH: QVQLQQSGAELVRPGVSVKISCKASGYTFTDHTMHWVKQSHARSLEWIGVISTYFGDASYNPKFKGKATMTVDKSSNTAYMELARLTSEDSAIYYCARVGGRLRLGYYFDYWGQGTTLTVSS
VL: NIMMTQSPSSLAVSAGEKVTMNCKSSQTVLYSSNQKNYLAWYQQKPGQSPKLLIYWASTRESGVPDRFTGSGSGTDFTLTISSVQVEDLAVYYCHQYLSSYTFGGGTKLEIK
notes: hybridoma IgG
B7: CD98HC.04.064 (antibody, V domains shown)
VH: QVQLQQPGAELVRPGASVKLSCKASGYTFTSYWMNWVRQRPGQGLEWIGLIDPSDSETHYNQMFKDRATLTVDKSSSTAYMQLSSLTSADPAVYYCARASYGKGYFDYWGQGTTLTVSS
VL: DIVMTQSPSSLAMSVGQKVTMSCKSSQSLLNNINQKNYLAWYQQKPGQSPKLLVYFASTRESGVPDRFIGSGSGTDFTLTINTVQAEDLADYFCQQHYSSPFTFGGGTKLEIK
notes: hybridoma IgG

biological target: T1, Full length mouse CD98hc on CHO cells; test: FACS, hybridoma supernatant
Excerpt: The IgG positive hybridoma supernatants (898 in total) were initially screened for their ability to differentially bind CHO cells overexpressing human or mouse CD98hc cells compared to CHO parental cells by FACS. Overexpressing cells were harvested, washed, and labeled with various concentrations and combinations of CellTrace cell proliferation dyes CFSE and Violet (ThermoFisher, Cat #C34554 and Cat #34557, respectively) to create uniquely barcoded cell populations. Barcoded cells (5×10⁴ of each cell population) were aliquoted into 96-well U-bottom plates and incubated with 50 μl of hybridoma cell culture supernatant or 1 μg/ml of commercially available purified mouse anti-human CD98hc monoclonal antibody (Sigma Aldrich, Cat #SAB 4700503) and rat anti-mouse CD98hc antibody (Bio-Rad Laboratories, Hercules, CA, Cat #MCA2684) on ice for 30 minutes. […] Following this secondary antibody incubation, the cells were again washed twice with ice-cold FACS buffer and resuspended in a final volume of 50 μl of FACS buffer containing 0.25 μl/well propidium iodide (BD Biosciences, Cat #556463). Binding intensity on cells was analyzed using the FACS Canto system (BD Biosciences), with sorting gates drawn to exclude dead (i.e., propidium iodide-positive) cells. For each barcoded cell population, the ratio of APC Mean Fluorescence Intensity (MFI) divided by secondary antibody MFI was calculated for each anti-CD98hc hybridoma supernatant tested and reported in Table 5.

binding result | Binder
no binding | B1
no binding | B2
no binding | B3
no binding | B4
no binding | B5
no binding | B6
no binding | B7

Biological target: T2, Full length human CD98hc on CHO cells
Test: FACS, hybridoma supernatant

MFI ratio over secondary antibody | Binder
25.8 | B1
34.4 | B2
27.7 | B3
34.4 | B4
25.1 | B5
33 | B6
46.6 | B7

biological target: T1, Full length mouse CD98hc on CHO cells; test: FACS, hybridoma supernatant; remark: another data set of the same source

MFI ratio over secondary antibody | Binder
1 | B1
1.2 | B2
1.2 | B3
1 | B4
1.3 | B5
1.2 | B6
1.2 | B7

Biological target: T3, human CD98hc endogenously expressed on …
Test: FACS, hybridoma supernatant

MFI ratio over secondary antibody | Binder
190 | B1
124 | B2
147 | B3
189 | B4
91.8 | B5
158 | B6
277 | B7
